Experimental data: publication PMC2602784

Legend:
Assay in all cases: EMSA
LldR R32A = biological target: T1, LldR R32A (Corynebacterium glutamicum ATCC 1332 …, UniProt Q8NLM6 1-231, R32A)
T1 sequence: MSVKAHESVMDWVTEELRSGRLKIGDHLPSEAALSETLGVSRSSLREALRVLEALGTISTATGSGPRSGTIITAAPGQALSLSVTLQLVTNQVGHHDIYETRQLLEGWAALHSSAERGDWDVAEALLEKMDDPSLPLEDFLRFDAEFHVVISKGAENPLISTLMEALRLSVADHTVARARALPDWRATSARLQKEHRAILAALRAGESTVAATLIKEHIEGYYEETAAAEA

LldR R42A = biological target: T2, LldR R42A (Corynebacterium glutamicum ATCC 1332 …, UniProt Q8NLM6 1-231, R42A)
T2 sequence: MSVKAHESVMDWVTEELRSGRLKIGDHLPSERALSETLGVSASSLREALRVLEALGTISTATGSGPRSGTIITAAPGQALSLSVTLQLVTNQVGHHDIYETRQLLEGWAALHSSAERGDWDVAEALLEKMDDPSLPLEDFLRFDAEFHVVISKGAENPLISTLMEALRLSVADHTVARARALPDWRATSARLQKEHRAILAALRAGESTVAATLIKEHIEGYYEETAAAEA

LldR K4A = biological target: T3, LldR K4A (Corynebacterium glutamicum ATCC 1332 …, UniProt Q8NLM6 1-231, K4A)
T3 sequence: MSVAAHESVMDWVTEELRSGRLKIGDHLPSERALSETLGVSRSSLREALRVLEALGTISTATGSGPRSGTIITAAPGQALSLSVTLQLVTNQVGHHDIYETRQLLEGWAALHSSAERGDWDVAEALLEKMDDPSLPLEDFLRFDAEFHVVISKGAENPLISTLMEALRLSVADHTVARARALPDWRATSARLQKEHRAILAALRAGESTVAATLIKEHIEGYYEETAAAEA

LldR G63A = biological target: T4, LldR G63A (Corynebacterium glutamicum ATCC 1332 …, UniProt Q8NLM6 1-231, G63A)
T4 sequence: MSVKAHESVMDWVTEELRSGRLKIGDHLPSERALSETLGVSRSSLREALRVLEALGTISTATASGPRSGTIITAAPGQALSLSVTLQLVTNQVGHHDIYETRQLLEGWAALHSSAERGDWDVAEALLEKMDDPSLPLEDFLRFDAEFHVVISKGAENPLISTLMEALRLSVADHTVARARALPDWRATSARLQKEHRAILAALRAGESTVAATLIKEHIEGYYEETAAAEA

Measured: binding result

B1: cgl2917-site1 (dsDNA)
DNA 1: TTGTGGTCTGACCATGA
DNA 2: TCATGGTCAGACCACAA
no binding: all assays above
